Measured values as given in IntAct's records for PubMed 20150893.

B1: Signal transducing adapter molecule 1 (Homo sapiens), Q92783 (parent)
chain: MPLFATNPFDQDVEKATSEMNTAEDWGLILDICDKVGQSRTGPKDCLRSIMRRVNHKDPHVAMQALTLLGACVSNCGKIFHLEVCSRDFASEVSNVLNKGHPKVCEKLKALMVEWTDEFKNDPQLSLISAMIKNLKEQGVTFPAIGSQAAEQAKASPALVAKDPGTVANKKEEEDLAKAIELSLKEQRQQSTTLSTLYPSTSSLLTNHQHEGRKVRAIYDFEAAEDNELTFKAGEIITVLDDSDPNWWKGETHQGIGLFPSNFVTADLTAEPEMIKTEKKTVQFSDDVQVETIEPEPEPAFIDEDKMDQLLQMLQSTDPSDDQPDLPELLHLEAMCHQMGPLIDEKLEDIDRKHSELSELNVKVMEALSLYTKLMNEDPMYSMYAKLQNQPYYMQSSGVSGSQVYAGPPPSGAYLVAGNAQMSHLQSYSLPPEQLSSLSQAVVPPSANPALPSQQTQAAYPNTMVSSVQGNTYPSQAPVYSPPPAATAAAATADVTLYQNAGPNMPQVPNYNLTSSTLPQPGGSQQPPQPQQPYSQKALL
B2: Class E vacuolar protein-sorting machinery protein HSE1 (Saccharomyces cerevisiae), P38753 (parent)
chain: MSSSAIKIRNALLKATDPKLRSDNWQYILDVCDLVKEDPEDNGQEVMSLIEKRLEQQDANVILRTLSLTVSLAENCGSRLRQEISSKNFTSLLYALIESHSVHITLKKAVTDVVKQLSDSFKDDPSLRAMGDLYDKIKRKAPYLVQPNVPEKHNMSTQADNSDDEELQKALKMSLFEYEKQKKLQEQEKESAEVLPQQQQQHQQQNQAPAHKIPAQTVVRRVRALYDLTTNEPDELSFRKGDVITVLEQVYRDWWKGALRGNMGIFPLNYVTPIVEPSKEEIEKEKNKEAIVFSQKTTIDQLHNSLNAASKTGNSNEVLQDPHIGDMYGSVTPLRPQVTRMLGKYAKEKEDMLSLRQVLANAERSYNQLMDRAANAHISPPVPGPALYAGMTHANNTPVMPPQRQSYQSNEYSPYPSNLPIQHPTNSANNTPQYGYDLGYSVVSQPPPGYEQ
B3: Vacuolar protein sorting-associated protein 27 (Saccharomyces cerevisiae), P40343 (parent)
chain: MSVSTPSELDALIEQATSESIPNGDLDLPIALEISDVLRSRRVNPKDSMRCIKKRILNTADNPNTQLSSWKLTNICVKNGGTPFIKEICSREFMDTMEHVILREDSNEELSELVKTILYELYVAFKNDSQLNYVAKVYDKLISRGIKFPEKLTLSNSPTAMFDSKTPADWIDSDACMICSKKFSLLNRKHHCRSCGGVFCQEHSSNSIPLPDLGIYEPVRVCDSCFEDYDLKRHDDSKKSKKHRHKRKKDRDYSTPEDEEELIRKAIELSLKESRNSASSEPIVPVVESKNEVKRQEIEEEEDPDLKAAIQESLREAEEAKLRSERQKASRQMQPQQPSPQPQPIHSVDLSDEEKDSIYMFASLVEKMKSRPLNEILEDSKLQNLAQRVFASKARLNYALNDKAQKYNTLIEMNGKISEIMNIYDRLLEQQLQSINLSQQYTLPQVPSDPYNYLTENVQNPAESYQTPPLQQLSSHQYKPQQDVSRQQSVKANSSPTTNIDHLKTIDVTPHAQQKPQSHVELAPSDPPYPKEEAEDEGTQAVQDEESSTQESRERPYPVETENGETSINKRPQGITRYDFPTVPARKFVQPESTVPLPASSSEIPIKEERPPSPQEELLIEL

Variants of: B1
Conditions: with ubb_bovin UBB

| Variant | effect of a mutation on the interaction |
| --- | --- |
| W26A | disrupting interaction |

Variants of: B1
Conditions: with ubb_bovin UBB
Remark: another data set of the same source

| Variant | effect of a mutation on the interaction |
| --- | --- |
| D31Q | increasing interaction |

Variants of: B1
Conditions: with ubb_bovin UBB
Remark: another data set of the same source

| Variant | effect of a mutation on the interaction |
| --- | --- |
| L30D | disrupting interaction |

Variants of: B1
Conditions: with ubb_bovin UBB
Remark: another data set of the same source

| Variant | effect of a mutation on the interaction |
| --- | --- |
| G27E | decreasing interaction |

Variants of: B2
Conditions: with ubb_bovin UBB

| Variant | effect of a mutation on the interaction |
| --- | --- |
| A170Q | disrupting interaction |
| S174D | disrupting interaction |

Variants of: B3
Conditions: with ubb_bovin UBB

| Variant | effect of a mutation on the interaction |
| --- | --- |
| S270D | disrupting interaction |
| A266Q | disrupting interaction |
